T1: PRO20040 (human IL-17RH2 receptor) (human, UniProt Q8NAC3-3 21-452)
T1 sequence (looked up): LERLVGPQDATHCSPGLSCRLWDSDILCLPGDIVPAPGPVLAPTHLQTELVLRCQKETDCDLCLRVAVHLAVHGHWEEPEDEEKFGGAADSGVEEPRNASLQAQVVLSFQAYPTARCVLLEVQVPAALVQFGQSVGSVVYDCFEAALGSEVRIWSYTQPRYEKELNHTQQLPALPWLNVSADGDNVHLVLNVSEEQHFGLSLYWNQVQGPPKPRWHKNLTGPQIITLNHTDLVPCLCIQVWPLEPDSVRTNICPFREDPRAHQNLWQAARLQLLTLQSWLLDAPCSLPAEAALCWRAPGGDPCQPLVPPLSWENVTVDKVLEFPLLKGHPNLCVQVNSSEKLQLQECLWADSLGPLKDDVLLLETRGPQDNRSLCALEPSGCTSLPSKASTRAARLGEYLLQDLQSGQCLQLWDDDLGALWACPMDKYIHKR

T2: PRO5801 (human IL-17RH1 receptor) (Homo sapiens, UniProt Q9NRM6)
T2 sequence (Q9NRM6 18-502): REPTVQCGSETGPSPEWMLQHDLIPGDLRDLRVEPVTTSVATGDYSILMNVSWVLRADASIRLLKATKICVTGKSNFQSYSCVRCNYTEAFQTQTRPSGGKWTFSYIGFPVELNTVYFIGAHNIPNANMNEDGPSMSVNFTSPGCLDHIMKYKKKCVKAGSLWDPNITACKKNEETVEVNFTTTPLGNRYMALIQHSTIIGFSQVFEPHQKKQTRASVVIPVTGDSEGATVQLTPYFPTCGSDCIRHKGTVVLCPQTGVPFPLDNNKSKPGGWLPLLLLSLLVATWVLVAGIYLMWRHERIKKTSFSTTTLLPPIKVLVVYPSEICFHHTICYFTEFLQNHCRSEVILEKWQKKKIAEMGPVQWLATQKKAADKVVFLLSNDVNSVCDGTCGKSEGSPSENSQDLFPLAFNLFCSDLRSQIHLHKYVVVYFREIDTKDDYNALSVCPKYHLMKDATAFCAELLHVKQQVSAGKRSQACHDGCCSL


What was measured:
[1] = target: T1, PRO20040 (human IL-17RH2 receptor); experiment: receptor/ligand screen, FIG. 14
Description: A PRO polypeptide of the present invention suspected of being a ligand for a receptor is expressed as a fusion protein containing the Fc domain of human IgG (an immunoadhesin). Receptor-ligand binding is detected by allowing interaction of the immunoadhesin polypeptide with cells (e.g. Cos cells) expressing candidate PRO polypeptide receptors and visualization of bound immunoadhesin with fluorescent reagents directed toward the Fc fusion domain and examination by microscope. Cells expressing candidate receptors are produced by transient transfection, in parallel, of defined subsets of a library of cDNA expression vectors encoding PRO polypeptides that may function as receptor molecules. Cells are then incubated for 1 hour in the presence of the PRO polypeptide immunoadhesin being tested for possible receptor binding. The cells are then washed and fixed with paraformaldehyde. The cells are then incubated with fluorescent conjugated antibody directed against the Fc portion of the PRO polypeptide immunoadhesin (e.g. FITC conjugated goat anti-human-Fc antibody). The cells are then washed again and examined by microscope. A positive interaction is judged by the presence of fluorescent labeling of cells transfected with cDNA encoding a particular PRO polypeptide receptor or pool of receptors and an absence of similar fluorescent labeling of similarly prepared cells that have been transfected with other cDNA or pools of cDNA. If a defined pool of cDNA expression vectors is judged to be positive for interaction with a PRO polypeptide immunoadhesin, the individual cDNA species that comprise the pool are tested individually (the pool is “broken down”) to determine the specific cDNA that encodes a receptor able to interact with the PRO polypeptide immunoadhesin.
In another embodiment of this assay, an epitope-tagged potential ligand PRO polypeptide (e.g., 8 histidine “His” tag) is allowed to interact with a panel of potential receptor PRO polypeptide molecules that have been expressed as fusions with the Fc domain of human IgG (immunoadhesins). Following a 1 hour co-incubation with the epitope tagged PRO polypeptide, the candidate receptors are each immunoprecipitated with protein A beads and the beads are washed. Potential ligand interaction is determined by Western blot analysis of the immunoprecipitated complexes with antibody directed towards the epitope tag.

[2] = target: T2, PRO5801 (human IL-17RH1 receptor); experiment: Receptor/ligand interaction screening assay (immunoadhesin); assay type: binding

Row | Molecule | binding result [1] | binding to IL-17RH1 receptor (PRO5801) [2]
1 | PRO1122 (IL-17C ligand) (ligand, UniProt Q9P0M4 19-197, looked up) HHDPSLRGHPHSHGTPHCYSAEELPLGQAPPHLLARGAKWGQALPVALVSSLEAASHRGRHERPSATTQCPVLRPEEVLEADTHQRSISPWRYRVDTDEDRYPQKLAFAECLCRGCIDARTGRETAALNSVRLLQSLLVLRRRPCSRDGSGLPTPGAFAFHTEFIHVPVGCTCVLPRSV | no binding | do not interact
2 | PRO21175 (IL-17D ligand) (ligand, UniProt Q8TAD2 16-202, looked up) AGAPRAGRRPARPRGCADRPEELLEQLYGRLAAGVLSAFHHTLQLGPREQARNASCPAGGRPADRRFRPPTNLRSVSPWAYRISYDPARYPRYLPEAYCLCRGCLTGLFGEEDVRFRSAPVYMPTVVLRRTPACAGGRSVYTEAYVTIPVGCTCVPEPEKDADSINSSIDKQGAKLLLGPNDAPAGP | no binding | do not interact

Source: US20070160576A1, “IL-17A/F heterologous polypeptides and therapeutic uses thereof” (Genentech, Inc., priority 2001, published 2007)
